Laboratory results published in patent US20220403028A1 (NUMAB THERAPEUTICS, published 2022).

Columns and labels:
human CD3ε on T cells = human CD3ε on T cells (human, UniProt P07766 23-207); assay: cell-based or functional assay
[1] = target: cynomolgus CD3ε (recombinant, coupled to the SPR chip) (cynomolgus (Macaca fascicularis)) (UniProt Q95LI5); assay: SPR (Biacore T200), CD3ε amine-coupled to CM5 chip, scFv as analyte, 1:1 Langmuir fit

Sequence of human CD3ε on T cells (P07766 23-207 limits assumed): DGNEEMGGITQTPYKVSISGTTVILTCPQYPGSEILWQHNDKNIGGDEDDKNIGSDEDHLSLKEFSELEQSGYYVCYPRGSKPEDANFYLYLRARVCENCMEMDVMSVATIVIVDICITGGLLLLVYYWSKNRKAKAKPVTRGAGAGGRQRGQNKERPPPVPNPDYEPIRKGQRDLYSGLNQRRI

Row | Binder | Kd [1] [nM] | EC50 of specific target cell lysis (IL-23R-expressing CHO-K1 target cells, human PBMCs, flow cytometry cytotoxicity assay) (human CD3ε on T cells) [nM]
1 | PRO389 (IL23R×CD3 1st gen Numab) (bispecific antibody) DIQMTQSPSSLSASVGDRVTITCQASENIYSFLAWYQQKPGKAPKLLIYSASKLAAGVPSRFSGSGSGTDFTLTISSLQPEDFATYYCQQTNRYSNPDIYNVFGTGTKVTVLGGGGGSEVQLVESGGGLVQPGGSLRLSCAASGFPLSSYAMIWVRQAPGKGLEWIGMILRAGNIYYASWVKGRFTISRDNSKNTVYLQMNSLRAEDTAVYYCARRHYNREGYPIGIGDLWGQGTLVTVSSGGGGSGGGGSGGGGSGGGGSDIQMTQSPSSLSASVGDRVTITCQSSESVYNNKRLSWYQQKPGKAPKLLIYTASSLASGVPSRFSGSGSGTDFTLTISSLQPEDFATYYCQGEFTCSNADCFTFGTGTKVTVLGGGGGSEVQLVESGGGLVQPGGSLRLSCAASGIDFNSNYYMCWVRQAPGKGLEWIGCIYVGSHVNTYYANWAKGRFTISRDNSKNTVYLQMNSLRAEDTAVYYCATSGSSVLYFKFWGQGTLVTVSS | – | 0.0053
2 | 28-21-D09-sc16 (scFv) scFv: DIQMTQSPSSLSASVGDRVTITCQSSQSVFSNNYLAWYQQKPGQSPKRLIYSASTLASGVPSRFSGSGSGTDFTLTISSLQPEDFATYYCLGSYACSSADCYVFGTGTKVTVLGGGGGSGGGGSGGGGSGGGGSEVQLVESGGGLVQPGGSLRLSCAASGFSLSSYDMSWVRQAPGKGLEWIGASYASGPTYYASWAKGRFTISRDNSKNTVYLQMNSLRAEDTATYFCARGGWTGTSHSNIWGQGTLVTVSS | 16.6 | –
3 | 28-21-D09-sc15 (scFv) scFv: DIQMTQSPSSLSASVGDRVTITCQSSQSVFSNNYLAWYQQKPGQSPKRLIYSASTLASGVPSRFSGSGSGTHFTLTISSLQPEDFATYYCLGSYACSSADCYVFGTGTKVTVLGGGGGSGGGGSGGGGSGGGGSEVQLVESGGGLVQPGGSLRLSCAASGFSLSSYDMSWVRQAPGKGLEWIGASYASGPTYYASWAKGRFTISRDNSKNTVYLQMNSLRAEDTATYFCARGGWTGTSHSNIWGQGTLVTVSS | 13.7 | –

Further binders by falling Kd [1], results first:

Row | Kd [1] [nM] | Binder | EC50 of specific target cell lysis (IL-23R-expressing CHO-K1 target cells, human PBMCs, flow cytometry cytotoxicity assay) (human CD3ε on T cells) [nM]
4 | 19.5 | 28-21-D09-sc19 (scFv) scFv: DIQMTQSPSSLSASVGDRVTITCQSSQSVFSNNYLAWYQQKPGQSPKRLIYSASTLASGVPSRFSGSGSGTDFTLTISSLQPEDFATYYCLGSYACSSADCYVFGTGTKVTVLGGGGGSGGGGSGGGGSGGGGSEVQLVESGGGLVQPGGSLRLSCAASGFSLSSYDMSWVRQAPGKGLEWIGASYASGPTYYASWAKGRFTISRDNSKNTVYLQMNSLRAEDTAVYYCARGGWTGTSHSNIWGQGTLVTVSS | –
5 | 14.2 | 28-21-D09-sc18 (scFv) scFv: DIQMTQSPSSLSASVGDRVTITCQSSQSVFSNNYLAWYQQKPGQSPKRLIYSASTLASGVPSRFSGSGSGTHFTLTISSLQPEDFATYYCLGSYACSSADCYVFGTGTKVTVLGGGGGSGGGGSGGGGSGGGGSEVQLVESGGGLVQPGGSLRLSCAASGFSLSSYDMSWVRQAPGKGLEWIGASYASGPTYYASWAKGRFTISRDNSKNTVYLQMNSLRAEDTAVYYCARGGWTGTSHSNIWGQGTLVTVSS | –
6 | 4.78 | 28-21-D09-sc04 (scFv) scFv: DIQMTQSPSSLSASVGDRVTITCQSSQSVFSNNYLAWFQQKPGQSPKRLIYSASTLASGVPSRFSGSGSGTDFTLTISSLQPEDFATYYCLGSYACSSADCYVFGTGTKVTVLGGGGGSGGGGSGGGGSGGGGSEVQLVESGGGLVQPGGSLRLSCAASGFSLSSYDMSWVRQAPGKGLAWIGASYASGPTYYASWAKGRFTISRDNSKNTVYLQMNSLRAEDTATYFCARGGWTGTSHSNIWGQGTLVTVSS | –
